# Test results reported in patent publication US20190338027A1 (ALLAKOS, published 2019).
# Molecular target: human Siglec-8 on lung mast cells from COPD patients (human, UniProt Q9NYZ4 17-499)
# Test: cell-based or functional assay
# human Siglec-8 on lung mast cells from COPD patients, sequence (Q9NYZ4 17-499): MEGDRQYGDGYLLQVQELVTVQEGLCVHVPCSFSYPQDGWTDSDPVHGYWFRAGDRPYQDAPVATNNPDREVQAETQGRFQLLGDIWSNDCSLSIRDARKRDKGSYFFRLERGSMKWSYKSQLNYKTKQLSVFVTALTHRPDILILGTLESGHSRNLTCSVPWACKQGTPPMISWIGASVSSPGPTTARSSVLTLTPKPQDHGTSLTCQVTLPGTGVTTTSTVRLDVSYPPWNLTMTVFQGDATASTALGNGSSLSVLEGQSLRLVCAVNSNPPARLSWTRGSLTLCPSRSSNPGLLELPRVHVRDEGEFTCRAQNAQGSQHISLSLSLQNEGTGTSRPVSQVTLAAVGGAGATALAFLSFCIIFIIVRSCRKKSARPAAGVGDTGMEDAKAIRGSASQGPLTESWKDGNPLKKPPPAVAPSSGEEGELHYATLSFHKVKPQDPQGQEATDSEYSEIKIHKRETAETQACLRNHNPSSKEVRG
binder,measurement,value
"anti-Siglec-8 IgG4 antibody (HEKA) (antibody, V domains shown) VH: EVQLVESGGGLVQPGGSLRLSCAASGFSLTIYGAHWVRQAPGKGLEWVGVIWAGGSTNYNSALMSRFTISKDNSKNTVYLQMNSLRAEDTAVYYCARDGSSPYYYSMEYWGQGTTVTVSS VL: EIVLTQSPATLSLSPGERATLSCSATSSVSYMHWFQQKPGQAPRLLIYSTSNLASGIPARFSGSGSGTDFTLTISSLEPEDFAVYYCQQRSSYPFTFGPGTKLDIKR","decrease in VEGF secreted into the cell supernatant by COPD lung tissue homogenates incubated overnight with antibody, relative to isotype control antibody",~50%
